What was measured:
Experiment in all cases: ELISA on coated antigen, A405 nm
[1] = target: T1, PD-L1 (mouse) (mouse, UniProt Q9EP73 19-238, limits assumed)
T1 construct: also called mouse PD-L1; murine PD-L1

[2] = target: T2, human PD-L2 (human, UniProt Q9BQ51 20-220, limits assumed)
T2 sequence (looked up): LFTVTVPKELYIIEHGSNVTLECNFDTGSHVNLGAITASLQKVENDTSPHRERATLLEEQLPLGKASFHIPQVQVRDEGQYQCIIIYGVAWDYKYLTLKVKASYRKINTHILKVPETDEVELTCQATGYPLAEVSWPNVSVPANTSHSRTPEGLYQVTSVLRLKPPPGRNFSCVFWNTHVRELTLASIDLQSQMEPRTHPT

[3] = target: T3, human B7H3 (human, UniProt Q5ZPR3-2 29-245, limits assumed)
T3 sequence (looked up): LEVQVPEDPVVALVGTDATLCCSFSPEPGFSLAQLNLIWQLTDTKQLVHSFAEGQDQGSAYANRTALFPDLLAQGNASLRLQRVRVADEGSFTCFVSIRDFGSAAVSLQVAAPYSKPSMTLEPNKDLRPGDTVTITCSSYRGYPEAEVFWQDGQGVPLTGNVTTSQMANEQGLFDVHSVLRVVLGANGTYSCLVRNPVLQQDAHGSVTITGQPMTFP

[4] = target: T4, B7H4 (human, UniProt Q7Z7D3 29-258, limits assumed)
T4 sequence (looked up): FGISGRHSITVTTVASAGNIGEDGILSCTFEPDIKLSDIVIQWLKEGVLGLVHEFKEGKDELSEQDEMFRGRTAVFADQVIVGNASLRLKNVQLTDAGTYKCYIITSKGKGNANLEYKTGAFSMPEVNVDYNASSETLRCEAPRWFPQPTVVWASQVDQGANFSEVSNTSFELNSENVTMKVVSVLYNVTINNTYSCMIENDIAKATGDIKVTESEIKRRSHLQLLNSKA

Measured: binding result

T1 sequence (Q9EP73 19-238 limits assumed): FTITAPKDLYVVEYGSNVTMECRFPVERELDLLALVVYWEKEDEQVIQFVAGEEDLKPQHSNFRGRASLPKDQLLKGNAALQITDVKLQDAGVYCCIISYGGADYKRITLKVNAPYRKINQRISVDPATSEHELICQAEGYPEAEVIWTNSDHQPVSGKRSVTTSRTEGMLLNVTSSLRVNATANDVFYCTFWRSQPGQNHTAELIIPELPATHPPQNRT

B1: bivalent anti-PD-L1 single-domain antibody before humanization (Fc fusion)
chain: QVQLQESGGGSVQAGGSLRLSCTASGYNLSPSCMGWFRQAPGKEREGVAFTDADGSTRYADSVKARFTISRDNAENTLYLQMNSLKPEDTAMYYCAADFFSYCSVVFRASARDKYRGQGTQVTVSS
notes: also called bivalent PD-L1 single-domain antibody before humanization; bivalent single-domain antibody before humanization; not shown: IgG1 Fc of vector pFUSE-IgG1
no binding: [1] | [2] | [3] | [4]

Reference: patent publication US20210261667A1 (SHANGHAI NOVAMAB BIOPHARMACEUTICALS, published 2021)
